Results on 56 substances are retold here after patent publication US20230038638A1, “COMPLEMENT FACTOR I-RELATED COMPOSITIONS AND METHODS” (published 2023).

In one test the target is T1, human C4b (human) (UniProt P0C0L4).
T1 sequence: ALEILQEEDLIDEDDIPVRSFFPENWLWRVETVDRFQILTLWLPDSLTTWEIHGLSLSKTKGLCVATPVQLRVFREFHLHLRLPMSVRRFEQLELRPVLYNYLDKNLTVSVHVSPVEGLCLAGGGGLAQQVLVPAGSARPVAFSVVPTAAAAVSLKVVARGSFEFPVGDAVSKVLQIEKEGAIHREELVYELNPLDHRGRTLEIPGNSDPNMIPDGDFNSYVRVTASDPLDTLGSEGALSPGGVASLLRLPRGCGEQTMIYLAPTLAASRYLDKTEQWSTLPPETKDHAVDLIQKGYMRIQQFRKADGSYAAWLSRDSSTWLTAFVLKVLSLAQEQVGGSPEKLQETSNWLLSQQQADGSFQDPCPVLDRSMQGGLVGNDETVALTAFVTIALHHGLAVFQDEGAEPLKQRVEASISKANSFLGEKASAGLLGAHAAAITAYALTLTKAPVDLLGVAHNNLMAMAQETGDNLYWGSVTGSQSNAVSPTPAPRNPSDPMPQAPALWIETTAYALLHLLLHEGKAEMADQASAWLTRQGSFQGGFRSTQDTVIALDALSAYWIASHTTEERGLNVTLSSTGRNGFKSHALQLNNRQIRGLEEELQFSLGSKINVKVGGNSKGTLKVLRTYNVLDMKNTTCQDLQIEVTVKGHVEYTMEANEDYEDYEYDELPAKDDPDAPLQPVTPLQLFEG

The target in test [1] is soluble human C3b (human) (UniProt P01024).

“And” between values parts separate entries of the source, which are not always exact repeats. Identical values can stand only once.

For the substance CFI-HSA variant E461P (enzyme), in the test with human C4b (human), the C4b Screen Ref Fold (fold of reference) is -0.01. In addition, in test [1], the iC3b Screen Ref Fold (fold of reference) came to 0.02.
As for CFI-HSA variant E461Q; S507A (enzyme), the C4b Screen Ref Fold (fold of CFI-HSA wild type) in the test with human C4b (human) was -0.01. In addition, the iC3b Screen Ref Fold (fold of CFI-HSA wild type) in test [1] was -0.04.
CFI-HSA variant E461S (enzyme): the C4b Screen Ref Fold (fold of reference) with human C4b (human) came to 1.32. Further, the iC3b Screen Ref Fold (fold of reference) in test [1] is 0.95.
Regarding CFI-HSA variant E461W (enzyme), the C4b Screen Ref Fold (fold of reference) with human C4b (human) is 0.8. In addition, the iC3b Screen Ref Fold (fold of reference) in test [1] stood at 0.67.
CFI-HSA variant E461Y (enzyme): in the test with human C4b (human), the C4b Screen Ref Fold (fold of reference) is 2.38. Further, the iC3b Screen Ref Fold (fold of reference) in test [1] came out at 0.99.
Regarding CFI-HSA variant E530F; F537K (enzyme), in the test with human C4b (human), the C4b Screen Ref Fold (fold of CFI-HSA wild type) amounted to 0. Besides, the iC3b Screen Ref Fold (fold of CFI-HSA wild type) in test [1] came to 0.03.
For CFI-HSA variant E530F; K504R (enzyme) the same measures were 0.05 and 1.14.
As to CFI-HSA variant E530F; P558S (enzyme), the C4b Screen Ref Fold (fold of CFI-HSA wild type) with human C4b (human) is 0.34 and 0.16. The iC3b Screen Ref Fold (fold of CFI-HSA wild type) in test [1] is 1.4 and 1.38.
With CFI-HSA variant E530F; S507A (enzyme), the C4b Screen Ref Fold (fold of CFI-HSA wild type) with human C4b (human) is 0.13. The iC3b Screen Ref Fold (fold of CFI-HSA wild type) in test [1] is -0.04.
For the substance CFI-HSA variant E530K (enzyme), in the test with human C4b (human), the C4b Screen Ref Fold (fold of reference) turned out to be 0.19. Besides, in test [1], the iC3b Screen Ref Fold (fold of reference) is 0.96.
As for CFI-HSA variant E530Y; P558S (enzyme), the C4b Screen Ref Fold (fold of CFI-HSA wild type) with human C4b (human) worked out at 0.43. Also, the iC3b Screen Ref Fold (fold of CFI-HSA wild type) in test [1] was 1.62.
The matching figures for CFI-HSA variant F537K; K504R (enzyme): 0.11 and 1.06.
For the substance CFI-HSA variant F537K; P558S (enzyme), the C4b Screen Ref Fold (fold of CFI-HSA wild type) with human C4b (human) was 0.38. Besides, the iC3b Screen Ref Fold (fold of CFI-HSA wild type) in test [1] came to 1.18.
In the case of CFI-HSA variant F537K; S507A (enzyme), in the test with human C4b (human), the C4b Screen Ref Fold (fold of CFI-HSA wild type) is -0.09. In addition, in test [1], the iC3b Screen Ref Fold (fold of CFI-HSA wild type) was -0.04.
In the case of CFI-HSA variant F559L (enzyme), the C4b Screen Ref Fold (fold of reference) with human C4b (human) was found to be 0.73. The iC3b Screen Ref Fold (fold of reference) in test [1] is 1.54.
For CFI-HSA variant G344K (enzyme) the same measures were 0.36 and 0.16.
In the case of “CFI-HSA variant G344K; Y408L; N531G (enzyme)”, the C4b Screen Ref Fold (fold of reference) in the test with human C4b (human) was determined as 1.2. In addition, the iC3b Screen Ref Fold (fold of reference) in test [1] was found to be 0.93.
Turning to CFI-HSA variant G344R (enzyme), in the test with human C4b (human), the C4b Screen Ref Fold (fold of reference) was determined as 0.74. Moreover, in test [1], the iC3b Screen Ref Fold (fold of reference) is 0.56.
“CFI-HSA variant G344R; Y408L; N531G (enzyme)”: the C4b Screen Ref Fold (fold of reference) with human C4b (human) is 3.03. Also, in test [1], the iC3b Screen Ref Fold (fold of reference) was determined as 0.98.
For CFI-HSA variant G344Y (enzyme) the same measures were 1.93 and 0.43.
Turning to “CFI-HSA variant G406A; D425K; E457G; E461Q; N531G (enzyme)”, the C4b Screen Ref Fold (fold of CFI-HSA wild type) with human C4b (human) stood at 3.17. In test [1], the iC3b Screen Ref Fold (fold of CFI-HSA wild type) was found to be 0.18.
The matching figures for CFI-HSA variant G406A; Y403F (enzyme): 1.47 and 1.15.
For CFI-HSA variant G406A; Y408L (enzyme), the C4b Screen Ref Fold (fold of reference) in the test with human C4b (human) came out at 0.68. In addition, the iC3b Screen Ref Fold (fold of reference) in test [1] was determined as 0.75.
The matching figures for CFI-HSA variant G406D; P535A (enzyme): 0.95 and 0.13.
The matching figures for “CFI-HSA variant G406D; Y408L; P535A (enzyme)”: 0.38 and 0.23.
The matching figures for CFI-HSA variant G469L (enzyme): 0.04 and 0.
“CFI-HSA variant G469L; R456N; E457T; K458A (enzyme)”: the C4b Screen Ref Fold (fold of reference) in the test with human C4b (human) was -0.07. The iC3b Screen Ref Fold (fold of reference) in test [1] is 0.
For “CFI-HSA variant G469L; R456N; K458A (enzyme)” the same measures were -0.07 and 0.
For “CFI-HSA variant G469L; R456N; K458A; E461G (enzyme)” the same measures were -0.03 and 0.
As to “CFI-HSA variant G469L; R456N; K458A; E461G; F537K (enzyme)”, the C4b Screen Ref Fold (fold of reference) with human C4b (human) is -0.02. The iC3b Screen Ref Fold (fold of reference) in test [1] was found to be 0.01.
Regarding CFI-HSA variant H383G (enzyme), the C4b Screen Ref Fold (fold of CFI-HSA wild type) with human C4b (human) was -0.02. Besides, the iC3b Screen Ref Fold (fold of CFI-HSA wild type) in test [1] was 0.02.
Regarding “CFI-HSA variant I317D-R318D-R319D-K320D-R321K; Y408L; N531G; E457G; E461Q; R462K; F464Y (enzyme)”, the C4b Screen Ref Fold (fold of reference) in the test with human C4b (human) is -0.02. Further, the iC3b Screen Ref Fold (fold of reference) in test [1] was 0.01.
For CFI-HSA variant I322T (enzyme) the same measures were 0.03 and 0.01.
For CFI-HSA variant I345G (enzyme) the same measures were 0.16 and -0.01.
Turning to CFI-HSA variant I382G (enzyme), in the test with human C4b (human), the C4b Screen Ref Fold (fold of CFI-HSA wild type) was found to be 0.33. The iC3b Screen Ref Fold (fold of CFI-HSA wild type) in test [1] was -0.03.
The matching figures for CFI-HSA variant I389G (enzyme): 0 and -0.03.
The matching figures for CFI-HSA variant I391G (enzyme): 0.03 and 0.01.
For CFI-HSA variant I560V (enzyme), in the test with human C4b (human), the C4b Screen Ref Fold (fold of reference) came out at 1.27. Besides, the iC3b Screen Ref Fold (fold of reference) in test [1] amounted to 1.31.
For “CFI-HSA variant K14A; Y20F; D26A; R35A; E38A (enzyme)”, the C4b Screen Ref Fold (fold of reference) with human C4b (human) was 0.15. Moreover, the iC3b Screen Ref Fold (fold of reference) in test [1] was found to be 0.11.
On to CFI-HSA variant K312A (enzyme), for which the C4b Screen Ref Fold (fold of reference) with human C4b (human) came out at 0.09. Besides, the iC3b Screen Ref Fold (fold of reference) in test [1] was determined as 0.84.
For CFI-HSA variant K312A; R314A (enzyme) the same measures were 0.58 and 0.48.
The matching figures for CFI-HSA variant K340G (enzyme): 0.15 and -0.01.
For CFI-HSA variant K340G; I345G (enzyme) the same measures were 0.14 and 0.
For the substance CFI-HSA variant K387G (enzyme), the C4b Screen Ref Fold (fold of CFI-HSA wild type) with human C4b (human) was found to be 0.37. Moreover, the iC3b Screen Ref Fold (fold of CFI-HSA wild type) in test [1] came out at 0.23.
With CFI-HSA variant K418G (enzyme), in the test with human C4b (human), the C4b Screen Ref Fold (fold of reference) worked out at 0.69. The iC3b Screen Ref Fold (fold of reference) in test [1] worked out at 0.39.
Take CFI-HSA variant K419G (enzyme): the C4b Screen Ref Fold (fold of CFI-HSA wild type) in the test with human C4b (human) amounted to 0.21. For the same substance, the iC3b Screen Ref Fold (fold of CFI-HSA wild type) in test [1] is 0.78.
For CFI-HSA variant K458A (enzyme), the C4b Screen Ref Fold (fold of reference) with human C4b (human) is 0.11. The iC3b Screen Ref Fold (fold of reference) in test [1] was found to be 0.71.
Turning to CFI-HSA variant K504R; P558S (enzyme), the C4b Screen Ref Fold (fold of CFI-HSA wild type) with human C4b (human) is 0.17. In addition, the iC3b Screen Ref Fold (fold of CFI-HSA wild type) in test [1] amounted to 1.19.
For CFI-HSA variant K504R; S507A (enzyme) the same measures were 0.18 and -0.02.
“CFI-HSA variant L304G; P305G; K306G; L307G; S308G (enzyme)”: the C4b Screen Ref Fold (fold of reference) with human C4b (human) turned out to be 0. In addition, the iC3b Screen Ref Fold (fold of reference) in test [1] was determined as 0.56.
On to CFI-HSA variant L386G (enzyme), for which the C4b Screen Ref Fold (fold of CFI-HSA wild type) in the test with human C4b (human) amounted to 0.07. The iC3b Screen Ref Fold (fold of CFI-HSA wild type) in test [1] is 0.54.
In the case of CFI-HSA variant N52Q; N159Q (enzyme), in the test with human C4b (human), the C4b Screen Ref Fold (fold of CFI-HSA wild type) was 0.56. For the same substance, in test [1], the iC3b Screen Ref Fold (fold of CFI-HSA wild type) turned out to be 1.39.
For “CFI-HSA variant N422K; E457G; E461Q; N531G (enzyme)” the same measures were 3.52 and 2.02.
With CFI-HSA variant N422K; S507A (enzyme), the C4b Screen Ref Fold (fold of CFI-HSA wild type) with human C4b (human) stood at 0.03. Further, the iC3b Screen Ref Fold (fold of CFI-HSA wild type) in test [1] was -0.03.
Take CFI-HSA variant N476Q; N518Q (enzyme): the C4b Screen Ref Fold (fold of CFI-HSA wild type) in the test with human C4b (human) was 0.15. In addition, the iC3b Screen Ref Fold (fold of CFI-HSA wild type) in test [1] amounted to 1.28.
Regarding CFI-HSA variant N531E (enzyme), the C4b Screen Ref Fold (fold of reference) in the test with human C4b (human) came to 3.96. The iC3b Screen Ref Fold (fold of reference) in test [1] stood at 0.82.
